# In the supplement of paper PMC9112550, “Optimization of the antimicrobial peptide Bac7 by deep mutational scanning” (BMC Biology, 2022):
# System: Escherichia coli TOP10
# Test: shrunken log2 fold change of peptide-encoding DNA abundance (4.5 h post-induction vs induction); higher = less antimicrobial activity (less host growth inhibition)
# Conditions: time post-induction: 4.5 h; library: site-saturation at positions 5, 18, 19, 20
# 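Note: peptides expressed intracellularly from a pBAD plasmid library in pooled LB shake-flask culture, induced with 0.3% L-arabinose, DNA abundance read by NGS, three biological replicates, DESeq2 with apeglm shrinkage.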
row,Sequence,shrunken log2 fold change
1,RRIRKRPPRLPRPRPRPNKWPRP,-0.0156
2,RRIRKRPPRLPRPRPRPNLNPRP,-0.356
3,RRIRKRPPRLPRPRPRPNMMPRP,0.172
4,RRIRKRPPRLPRPRPRPNNFPRP,-0.0233
5,RRIRKRPPRLPRPRPRPNPHPRP,0.188
6,RRIRKRPPRLPRPRPRPNQFPRP,0.103
7,RRIRKRPPRLPRPRPRPNQIPRP,0.105
8,RRIRKRPPRLPRPRPRPNQMPRP,0.234
9,RRIRKRPPRLPRPRPRPNQRPRP,-0.192
10,RRIRKRPPRLPRPRPRPNRTPRP,-0.0227
11,RRIRKRPPRLPRPRPRPNTDPRP,-0.261
12,RRIRKRPPRLPRPRPRPNTNPRP,-0.0445
13,RRIRKRPPRLPRPRPRPNVRPRP,-0.0184
14,RRIRKRPPRLPRPRPRPNVSPRP,0.106
15,RRIRKRPPRLPRPRPRPNWLPRP,0.246
16,RRIRKRPPRLPRPRPRPNYIPRP,-0.0745
17,RRIRKRPPRLPRPRPRPNYLPRP,-0.0798
18,RRIRKRPPRLPRPRPRPNYMPRP,-0.117
19,RRIRKRPPRLPRPRPRPNYNPRP,0.0883
20,RRIRKRPPRLPRPRPRPNYWPRP,0.157
21,RRIRKRPPRLPRPRPRPPAKPRP,0.408
22,RRIRKRPPRLPRPRPRPPAWPRP,0.602

row,Sequence,shrunken log2 fold change
1,RRIRKRPPRLPRPRPRPPEDPRP,3.39
2,RRIRKRPPRLPRPRPRPPETPRP,0.651
3,RRIRKRPPRLPRPRPRPPFDPRP,0.586
4,RRIRKRPPRLPRPRPRPPFRPRP,0.566
5,RRIRKRPPRLPRPRPRPPFWPRP,1.2
6,RRIRKRPPRLPRPRPRPPHRPRP,0.501
7,RRIRKRPPRLPRPRPRPPICPRP,0.684
8,RRIRKRPPRLPRPRPRPPIKPRP,0.0648
9,RRIRKRPPRLPRPRPRPPLNPRP,0.309
10,RRIRKRPPRLPRPRPRPPNEPRP,1.68
11,RRIRKRPPRLPRPRPRPPNLPRP,0.492
12,RRIRKRPPRLPRPRPRPPPTPRP,1.11
13,RRIRKRPPRLPRPRPRPPSVPRP,0.282
14,RRIRKRPPRLPRPRPRPPTGPRP,0.265
15,RRIRKRPPRLPRPRPRPPVGPRP,1.04
16,RRIRKRPPRLPRPRPRPPVWPRP,0.448
17,RRIRKRPPRLPRPRPRPQAMPRP,0.146
18,RRIRKRPPRLPRPRPRPQCAPRP,0.28
19,RRIRKRPPRLPRPRPRPQCIPRP,-0.149
20,RRIRKRPPRLPRPRPRPQCPPRP,-0.000549
21,RRIRKRPPRLPRPRPRPQDDPRP,0.00685
22,RRIRKRPPRLPRPRPRPQDHPRP,0.103

row,Sequence,shrunken log2 fold change
1,RRIRKRPPRLPRPRPRPQDYPRP,0.118
2,RRIRKRPPRLPRPRPRPQERPRP,-0.0146
3,RRIRKRPPRLPRPRPRPQEYPRP,-0.0576
4,RRIRKRPPRLPRPRPRPQFTPRP,-0.0285
5,RRIRKRPPRLPRPRPRPQGLPRP,0.256
6,RRIRKRPPRLPRPRPRPQHHPRP,-0.201
7,RRIRKRPPRLPRPRPRPQKSPRP,0.0653
8,RRIRKRPPRLPRPRPRPQLGPRP,0.378
9,RRIRKRPPRLPRPRPRPQLLPRP,0.261
10,RRIRKRPPRLPRPRPRPQLTPRP,0.14
11,RRIRKRPPRLPRPRPRPQMDPRP,0.618
12,RRIRKRPPRLPRPRPRPQMWPRP,0.608
13,RRIRKRPPRLPRPRPRPQNKPRP,0.0275
14,RRIRKRPPRLPRPRPRPQNWPRP,0.508
15,RRIRKRPPRLPRPRPRPQPYPRP,-0.157
16,RRIRKRPPRLPRPRPRPQQHPRP,0.138
17,RRIRKRPPRLPRPRPRPQQSPRP,-0.0568
18,RRIRKRPPRLPRPRPRPQRDPRP,0.858
19,RRIRKRPPRLPRPRPRPQSKPRP,0.116
20,RRIRKRPPRLPRPRPRPQTVPRP,0.0918
21,RRIRKRPPRLPRPRPRPQTYPRP,-0.021
22,RRIRKRPPRLPRPRPRPQVHPRP,-0.161

row,Sequence,shrunken log2 fold change
1,RRIRKRPPRLPRPRPRPQWKPRP,0.17
2,RRIRKRPPRLPRPRPRPQWNPRP,-0.105
3,RRIRKRPPRLPRPRPRPQWPPRP,0.124
4,RRIRKRPPRLPRPRPRPQWSPRP,0.00166
5,RRIRKRPPRLPRPRPRPQYHPRP,-0.432
6,RRIRKRPPRLPRPRPRPQYMPRP,0.0201
7,RRIRKRPPRLPRPRPRPRARPRP,0.776
8,RRIRKRPPRLPRPRPRPRCAPRP,0.568
9,RRIRKRPPRLPRPRPRPRDPPRP,1.06
10,RRIRKRPPRLPRPRPRPRDRPRP,1.26
11,RRIRKRPPRLPRPRPRPREKPRP,-0.107
12,RRIRKRPPRLPRPRPRPRESPRP,0.159
13,RRIRKRPPRLPRPRPRPRETPRP,0.0512
14,RRIRKRPPRLPRPRPRPRHGPRP,-0.0248
15,RRIRKRPPRLPRPRPRPRIGPRP,0.128
16,RRIRKRPPRLPRPRPRPRKCPRP,0.0121
17,RRIRKRPPRLPRPRPRPRKSPRP,0.727
18,RRIRKRPPRLPRPRPRPRLHPRP,0.312
19,RRIRKRPPRLPRPRPRPRLRPRP,0.485
20,RRIRKRPPRLPRPRPRPRLSPRP,0.0586
21,RRIRKRPPRLPRPRPRPRMCPRP,-0.211
22,RRIRKRPPRLPRPRPRPRPRPRP,1.01

row,Sequence,shrunken log2 fold change
1,RRIRKRPPRLPRPRPRPRQTPRP,0.0644
2,RRIRKRPPRLPRPRPRPRQVPRP,0.029
3,RRIRKRPPRLPRPRPRPRQYPRP,0.0199
4,RRIRKRPPRLPRPRPRPRSDPRP,0.197
5,RRIRKRPPRLPRPRPRPRWPPRP,0.528
6,RRIRKRPPRLPRPRPRPRYMPRP,-0.334
7,RRIRKRPPRLPRPRPRPSAPPRP,0.504
8,RRIRKRPPRLPRPRPRPSCDPRP,0.141
9,RRIRKRPPRLPRPRPRPSCVPRP,0.311
10,RRIRKRPPRLPRPRPRPSDLPRP,0.154
11,RRIRKRPPRLPRPRPRPSDWPRP,0.288
12,RRIRKRPPRLPRPRPRPSEHPRP,-0.183
13,RRIRKRPPRLPRPRPRPSFEPRP,0.000728
14,RRIRKRPPRLPRPRPRPSFFPRP,-0.0585
15,RRIRKRPPRLPRPRPRPSFGPRP,-0.324
16,RRIRKRPPRLPRPRPRPSFVPRP,-0.174
17,RRIRKRPPRLPRPRPRPSFWPRP,0.299
18,RRIRKRPPRLPRPRPRPSHIPRP,0.156
19,RRIRKRPPRLPRPRPRPSHWPRP,0.275
20,RRIRKRPPRLPRPRPRPSITPRP,0.846
21,RRIRKRPPRLPRPRPRPSIYPRP,-0.353
